Values quoted from earlier work in PMC3507713.

Biological target: TRAIL (Homo sapiens) (UniProt P50591)
Chain of UniProt P50591 (P50591 whole entry): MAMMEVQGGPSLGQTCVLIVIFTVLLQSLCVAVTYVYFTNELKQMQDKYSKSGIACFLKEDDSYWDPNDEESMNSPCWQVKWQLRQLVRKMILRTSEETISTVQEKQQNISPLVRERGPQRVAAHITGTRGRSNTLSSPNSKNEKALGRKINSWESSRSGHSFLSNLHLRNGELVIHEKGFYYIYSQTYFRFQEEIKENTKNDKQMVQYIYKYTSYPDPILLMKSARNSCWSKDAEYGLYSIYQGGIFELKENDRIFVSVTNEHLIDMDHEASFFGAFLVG

Kd: 400 nM
Substance: Osteoprotegerin (from UniProt O00300)
